From patent US9290794B2, “Mutant protease biosensors with enhanced detection characteristics” (PROMEGA CORPORATION, priority 2010, dated 2016)

System: Caspase-8
Assay: Caspase-8 biosensors transfected into HeLa cells, induction with TRAIL
Type: cell-based
Conditions: 1 μg/mL TRAIL, 37° C.
Excerpt: To evaluate whether the mutant thermostable luciferase biosensors of the present invention can be used to detect Caspase-8 activity in cells, biosensors were generated that contained the Caspase-8 cleavage site, LETDG (SEQ ID NO:15). Two different biosensors, TL-CP358-Caspase-8 and TL-CP233-Caspase-8 were used. As controls, the firefly (Photinus pyralis; Ppy) luciferase biosensors FF-CP234-Caspase-8 (M/Ppy residues 234-544/LETDG/Ppy residues 4-230/V), FF-CP359-Caspase-8 (M/Ppy residues 359-544/LETDG/Ppy residues 4-355/V), and TL-CP358-DEVD.
All biosensors were transfected into HeLa cells. Cells were plated at a (10,000/well) into a 96-well tissue culture plate. […]
After overnight incubation, the media was removed from the cells and replaced with CO2 Independent Media (Invitrogen Cat. No. 18045088) with 2 mM Luciferin EF (Promega Cat. No. E6551). Cells were pre-equilibrated with Luciferin EF for 2 hrs in a Varioskan luminometer with bioluminescence readings taken every 20 min. […] The cells were again incubated at 37° C. in a Varioskan luminometer for 500+ min with bioluminescence measured every 20 min.
FIGS. 5 and 7 identify the kinetic profiles of Caspase 8 activation by TRAIL over time at 37° C. […] Fold induction of activation was calculated by dividing the signal of samples with TRAIL over the signals without trail at a given time point. […]

| Molecule | detection of Caspase 8 activation by TRAIL |
| --- | --- |
| TL-CP233-Caspase 8: TL Ppe fragments 233-543 and 4-232 with caspase-8 site linker … (SEQ ID NOs:57 and 58) (protein) MTSAILTVIPFHHGFGMMTTLGYFTCGFRVVLMHTFEEKLFLQSLQDYKVESTLLVPTLMAFLAKSALVEKYDLSHLKEIASGGAPLSKEIGEMVKKRFKLNFVRQGYGLTETTSAVLITPKGDAKPGSTGKIVPLHAVKVVDPTTGKILGPNEPGELYFKGPMIMKGYYNNEEATKAIIDNDGWLRSGDIAYYDNDGHFYIVDRLKSLIKYKGYQVAPAEIEGILLQHPYIVDAGVTGIPDEAAGELPAAGVVVQTGKYLNEQIVQDYVASQVSTAKWLRGGVKFLDEIPKGSTGKIDRKVLRQMLEKHTNGSSLETDGSSGDKNILYGPEPFYPLEDGTAGEQMFDALSRYAAIPGCIALTNAHTKENVLYEEFLKLSCRLAESFKKYGLKQNDTIAVCSENSLQFFLPVIASLYLGIIVAPVNDKYIERELIHSLGIVKPRIVFCSKNTFQKVLNVKSKLKSIETIIILDLNEDLGGYQCLNNFISQNSDSNLDVKKFKPYSFNRDDQVASIMFSSGTTGLPKGVMLTHKNIVARFSIAKDPTFGNAINPV | can detect Caspase 8 activation by TRAIL |
| TL-CP358-Caspase 8: TL Ppe fragments 358-543 and 4-354 with caspase-8 site linker … (SEQ ID NOs:59 and 60) (protein) MPGSTGKIVPLHAVKVVDPTTGKILGPNEPGELYFKGPMIMKGYYNNEEATKAIIDNDGWLRSGDIAYYDNDGHFYIVDRLKSLIKYKGYQVAPAEIEGILLQHPYIVDAGVTGIPDEAAGELPAAGVVVQTGKYLNEQIVQDYVASQVSTAKWLRGGVKFLDEIPKGSTGKIDRKVLRQMLEKHTNGSSLETDGSSGKNILYGPEPFYPLEDGTAGEQMFDALSRYAAIPGCIALTNAHTKENVLYEEFLKLSCRLAESFKKYGLKQNDTIAVCSENSLQFFLPVIASLYLGIIVAPVNDKYIERELIHSLGIVKPRIVFCSKNTFQKVLNVKSKLKSIETIIILDLNEDLGGYQCLNNFISQNSDSNLDVKKFKPYSFNRDDQVASIMFSSGTTGLPKGVMLTHKNIVARFSIAKDPTFGNAINPTSAILTVIPFHHGFGMMTTLGYFTCGFRVVLMHTFEEKLFLQSLQDYKVESTLLVPTLMAFLAKSALVEKYDLSHLKEIASGGAPLSKEIGEMVKKRFKLNFVRQGYGLTETTSAVLITPKGV | can detect Caspase 8 activation by TRAIL |
